Reference: patent US8063014B2, “Self-assembly of peptide-amphiphile nanofibers under physiological conditions” (Northwestern University, priority 2002, dated 2011)
Non-standard residues stand in square brackets, D forms with d. No end group written: not given here. *: point of attachment. C16 alkyl = N-terminal C16 alkyl tail, CCCCCCCCCCCCCCCC*; pS = N[C@@H](COP(=O)(O)O)C(=O)O

What was measured:
[1] = Gelation on addition of metal salts (vial inversion); format: physicochemical
Procedure: 100 μl of 10 mg/ml solution of peptide-amphiphile 20 was treated with 1M CaCl2 (adjusted to pH 6) drop wise in 1 μl increments. The solutions were shaken after each addition of the CaCl2 solution in order to obtain better diffusion of the divalent metal ions. Gelation was immediate. […] This calcium induced self-assembly may be particularly useful for medical applications where formation of a gel at physiological pH is desired. Trivalent metal cations can also be used for gelation.
To determine the relative number of metal ions necessary for gelation of the PAs, titration experiments were performed with PA molecules 26 and 27. […] (See Table 3, below). […] None of the negatively charged peptide-amphiphiles except molecule 32 formed gels in the presence of KCl at a ratio 1 molecule of PA per 20 molecules of KCl.
(§1) The synthesis of the peptide amphiphiles illustrates in examples 19-22 was performed using a standard synthesis scheme described elsewhere, herein, and as further available in the literature. Regarding gelation and with reference to the data of Table 3, […] volumes of PA solutions at concentrations 10 mg/ml (approximately 8 mM), pH 7.5 were mixed with 1 M solutions of NaCl, KCl, MgCl2, CaCl2, BaCl2, ZnBr2, […], Gd^+3 and Cu(ClO4)2. The amount of polyvalent ions added to the solutions varied from 0.5 to 5 metal ions per molecule of PA. For monovalent metal ions the maximum concentration of 6 M of metal ions per 10 mM of PA molecules has been tested. The solutions of the metal salts were added to the PA solutions by micropeppetors, the solutions were stirred briefly, in order to obtain better mixing of the components. The formation of self-supporting gels was examined by flipping of the vials up side down. In order to test the ability of cell compatible solutions to induce a gelation of PAs equal amounts 10 mM PA solutions were mixed with following formulations: MEM-α, DMEM containing 10% of fetal bovine serum, PBS without Ca^+2 and Mg^+2 and Hank's solution without Ca^+2 and Mg^+2 (Gibco). The ability of the above solutions to induce formation of the PAs was examined visually by flipping the vials up side down.

[2] = Gelation on mixing with cell culture media, PBS or Hank's solution; format: physicochemical; details: for gel formation on mixing with equal amounts of cell culture media: 10 mM PA solution in water; for gel formation on mixing with PBS and Hank's solutions depleted by Ca2+ and Mg2+: PA solution
From the text: One potential application of the peptide-amphiphile self-assembled gels is in the area of tissue engineering, in particular the formation of artificial extracellular matrices and cell delivery systems. The results of this example show PA self-assembly in situ and in vitro cell culture systems. Body fluids as well as cell culture media contain significant amounts inorganic cations. It was presumed that the peptide amphiphiles would form a gel upon mixing with these liquids.
as §1

[3] = Mineralization of PA nanofibers with CaCl2 and Na2HPO4 on TEM grid
Procedure: To investigate the mineralization properties of PA nanofibers of this invention, the material was assembled and mineralized directly on a holey carbon coated TEM grid—to allow study of the dynamics of the mineralization process while minimizing artifacts of TEM sample preparation. To prepare samples, a drop of aqueous PA (1 mg/ml) was mounted on the holey grid and the self-assembly of the PA was induced in an atmosphere of HCl vapor. The grids were immersed in aqueous iodine to oxidize the cysteine thiol groups to disulfides. After rinsing with distilled water, the PA coated grids were treated with 5 μl of 10 mM CaCl2 on one side and 5 μl of 5 mM Na2HPO4 on the other side. The two solutions are able to mix only by passing through the holes in the carbon support.
In a second control, a PA was prepared in which phosphoserine was replaced by serine and treated as above with calcium and phosphate.

[4] = salt 20 mM, PA 10 mg/ml (roughly 8 mM)

Substance | gelation in the presence of KCl or NaCl ([1]; 10 mM PA solution, salt concentrations up to 6M) | gelation properties, KCl ([1]; KCl concentration up to 6M (molecules 26 and 27), PA 10 mg/ml (roughly 8 mM)) | gelation properties, BaCl2 [1, 4] | gelation properties, CaCl2 [1, 4] | gelation properties, Cu(ClO4)2 [1, 4] | gelation properties, GdCl3 [1, 4] | gelation properties, ZnBr2 [1, 4] | minimal amount of CA+2 and Gd+3 ions needed for the gelation ([1]; titration) | gel formation on mixing with equal amounts of cell culture media [2] | gel formation on mixing with PBS and Hank's solutions depleted by Ca2+ and Mg2+ [2] | gelation properties, KCl ([1]; KCl 200 mM, PA 10 mg/ml (roughly 8 mM), pH 7.5) | result of addition of 200 mM of KCl ([1]; 10 mM PA solution) | mineral observed on the fibers by TEM ([3]; 20 minutes of incubation with calcium and phosphate) | mineral observed on the fibers by TEM ([3]; 30 minutes of incubation with calcium and phosphate)
27 (AAAAGGG[pS]RGD-OH; not fully specified (N-terminus); printed as Alkyl-A4G3S(P)RGD-COOH) [compound 27] | did not gel | Liquid | gel | gel | gel | gel | gel | about equal to the number of PA molecules in solution | gel formation was observed | no gel formation was observed |  |  |  | 
28 (AAAAGGG[pS]KGE-OH; not fully specified (N-terminus)) [compound 28] |  |  | gel | gel |  | gel | gel |  | gel formation was observed | no gel formation was observed | Liquid |  |  | 
33 ({C16 alkyl}-CCCCGGGKIKVAV-NH2; cysteine pairing not given here) [compound 33] |  |  |  |  |  |  |  |  | gel formation was observed |  |  | formation of a self-supporting gel |  | 
Alkyl-C4G3SRGD-COOH ({C16 alkyl}-CCCCGGGSRGD-OH; cysteine pairing not given here) [PA 29] |  |  |  |  |  |  |  |  |  |  |  |  | only amorphous mineral deposit | only amorphous mineral
